Data taken from patent publication US20240294570A1 (BRANDEIS UNIVERSITY, published 2024).
Blank lines part the entries; values can stand above or below the binder they belong to. Non-standard residues stand in square brackets, D forms with d. No end group written: not given here. *: point of attachment. pY = N[C@@H](Cc1ccc(OP(=O)(O)O)cc1)C(=O)O; NBD = O=[N+]([O-])c1ccc(*)c2nonc12; βAla = NCCC(=O)O

Target: Alkaline phosphatase (Biomatik, Cat. No. A1130)
Assay: cell-based or functional assay

half-life of 5 (400 µM) with 0.1 U/mL ALP: 122 min
half-life of 5 at 100 µM with 0.5 U/mL ALP (LC-MS): 27.3 min
half-life of 5 at 200 µM with 0.5 U/mL ALP (LC-MS): 21.6 min
half-life of 5 at 400 µM with 0.5 U/mL ALP (LC-MS): 30.6 min
B1: L-phosphopentapeptide 5, NBD-βA-LLLLpY (peptide)
peptide: {NBD}-[βAla]LLLL[pY]

half-life of 9 at 100 µM with 0.5 U/mL ALP: 24.6 min
half-life of 9 at 200 µM with 0.5 U/mL ALP: 21.6 min
half-life of 9 at 400 µM with 0.5 U/mL ALP: 27 min
B2: phosphopentapeptide 9, NBD-βA-llllpY (peptide)
peptide: {NBD-βAla}-[dL][dL][dL][dL][pY]

half-life of 7 at 100 µM with 0.5 U/mL ALP: 127 min
half-life of 7 at 200 µM with 0.5 U/mL ALP: 112 min
half-life of 7 at 400 µM with 0.5 U/mL ALP: 126 min
B3: phosphopentapeptide 7, NBD-βA-LLpYLL (peptide)
peptide: {NBD}-[βAla]LL[pY]LL
